Assays:
[1] = test system: head and neck squamous cell carcinoma PDX LD1-0023-200615; assay: In vivo anti-tumor activity against human head and neck squamous cell carcinoma PDX LD1-0023-200615; settings: NU/NU mice, i.v. 5 mg/kg, once a week, 2 doses, vs negative control
Experimental: 6-week-old NU/NU mice, female, weighing 18-21 g, were purchased from Beijing Vital River Laboratory Animal Technology Co., Ltd. The mice were subcutaneously inoculated with head and neck squamous cell carcinoma tumor mass (specimen no. 200615, obtained from Xi'an LIDE Biotech Co. Ltd.). When the average tumor volume reached 150 mm^3, the antibody-drug conjugate Ab13-T1000-exatecan as prepared in Example 5 was administered intravenously at a dose of 10 mg/kg, the antibody-drug conjugate h6M24-vc0101 as prepared in Example 8 was administered intravenously at a dose of 5 mg/kg, and a negative control Vehicle group was set and administered intravenously with PBS at an equal dose, once a week for a total of 2 doses. After dosing, the tumor volume was measured twice a week using a vernier caliper and calculated according to the following formula: TV=(length*width^2)/2.

[2] = test system: OVCAR-3 cells; assay: In vivo anti-tumor activity against human ovarian cancer cell line OVCAR-3; settings: OVCAR-3 in NCG mice, i.v. 3 mg/kg or 5 mg/kg, 1 dose, vs negative control
Experimental: 6-week-old NCG mice, female, weighing 18-21 g, were purchased from Beijing Vital River Laboratory Animal Technology Co., Ltd. The mice were subcutaneously inoculated with OVCAR-3 cells (Human Ovarian Cancer Cells, ATCC, Catalog No. HTB-161). When the average tumor volume reached 150 mm^3, the antibody-drug conjugates Ab13-T1000-exatecan and h6M24-T1000-exatecan as prepared in Example 5 and the antibody-drug conjugate Ab13-vc0101 and h6M24-vc0101 as prepared in Example 8 were administered intravenously at a dose of 3 mg/kg or 5 mg/kg, respectively, and a negative control Vehicle group was set and administered intravenously with PBS at an equal dose, once a week for a total of 1 dose. After dosing, the tumor volume was measured twice a week using a vernier caliper and calculated according to the following formula: TV=(length*width^2)/2.

B1: h6M24-vc0101: control drug: h6M24 (cofetuzumab) linked to Aur0101 via mc-VC-PAB linker, DAR about 4 (conjugate, chains of the INN, looked up)
VH: QVQLVQSGPEVKKPGASVKVSCKASGYTFTDYAVHWVRQAPGKRLEWIGVISTYNDYTYNNQDFKGRVTMTRDTSASTAYMELSRLRSEDTAVYYCARGNSYFYALDYWGQGTSVTVSS
VL: EIVLTQSPATLSLSPGERATLSCRASESVDSYGKSFMHWYQQKPGQAPRLLIYRASNLESGIPARFSGSGSGTDFTLTISSLEPEDFAVYYCQQSNEDPWTFGGGTKLEIK
modifications: Aur0101 via mc-VC-PAB linker, DAR 4
Which “tumor growth inhibition (tumor volume over time)” value [1] does the source give for B1 here?
The value was “significantly inhibit tumor growth”.

What about the “tumor growth inhibition (tumor volume over time)” value [2] of the same molecule?
Its value is “less effective in inhibiting tumor growth”.
